B1: マウス抗ヒトCD36モノクローナル抗体 クローン2-66 (antibody, mouse IgG1, V domains shown)
VH: QVQLQQPGAELVKPGASVRMSCKASGYTFTNYNMHWVKQTPGQGLEWIGVIYPGNGDTSYSQKFKGKATLTADKSSRTGYMQLSSLTSEDSAVYYCTRSGWDDWFFDVWGAGTSVTVSS
VL: DVLMTQTPLSLPVSLGDQASISCRSSQSIVQRNGITYLEWYQQKTGQSPKLLIYKVSNRFSGVPDRFSGSGSGTDFTLKISRVEAEDLGVYYCFQGSHVPPTFGGGTKLEIK
notes: also called クローン2−66; 抗CD36抗体
B2: マウス抗ヒトCD36モノクローナル抗体 クローン4-62 (antibody, mouse IgG2a, V domains shown)
VH: QIHLVQSGPELKKPGETVKISCKASGYTFTNYGMNWVMQAPGKVLKWMGWINTYTGETTYADDFKGRFAFSLETSASTAYLQINSLKYEDTASYFCARDDGYSFYYDMDYWGQGTSVTVSS
VL: DVLMTQTPLSLPVSLGDQASISCRSSQSIVHTNGNTYLQWYLQKPGQSPKLLIYKVSNRFSGVPDRFSGSGSGTDFTLKISTVEAEDLGVYYCFQGSHVPWTFGGGTKLEIK
notes: also called クローン4−62; 抗CD36抗体
B3: マウス抗ヒトCD36モノクローナル抗体 クローン1-3 (antibody, mouse IgG2b, V domains shown)
VH: QAQLQQSGAELVRPGASVTLSCKASGYTFTDYEMNWVKQTPVHGLEWIGAIDPEIGGSAYNQKFKGKATLTADKSSSTAYMELRSLTSEDSAVYYCTRSKLPAWFPYWGQGTLVTVSA
VL: EIKMTQSPSAMYASLGERVTITCKASQDINSYLSWFQQKPGKSPKTLIYRANRLVDGVPSRFSGSGSGQDYSLTISSLEFEDMGIYYCLQYEEFPYTFGGGTKLEIK
notes: also called クローン1−3; 抗CD36抗体
B4: マウス抗ヒトCD36モノクローナル抗体 クローン1-36 (antibody, mouse IgG2b, V domains shown)
VH: QVQLQQSGAELVRPGASVKLSCKALNYTFTDYEMHWVKQTPVHGLEWIGGIHPGSGGTAYNQRFKGKATLTADKSSSTAYIEVSSLTSEDSAVYYCSLTTASAWFAYWGQGTLVTVSV
VL: DIKMTQSPSSMYASLGERVTITCKASQDINSYLSWFQQKPGKSPKTLIYRANRLLDGVPSRFSGSGSGQDYSLTISSLEYEDMGIYYCLQYDEFPLTFGAGTKLELK
notes: also called クローン1−36; 抗CD36抗体

Target: T1, CD36 (CD36発現細胞; pcDNA-CD36を一過性に導入した293T細胞) (human, UniProt P16671 2-472)
T1 construct: whole, on cells; also called ヒトCD36; CD36発現株
T1 sequence (P16671 2-472): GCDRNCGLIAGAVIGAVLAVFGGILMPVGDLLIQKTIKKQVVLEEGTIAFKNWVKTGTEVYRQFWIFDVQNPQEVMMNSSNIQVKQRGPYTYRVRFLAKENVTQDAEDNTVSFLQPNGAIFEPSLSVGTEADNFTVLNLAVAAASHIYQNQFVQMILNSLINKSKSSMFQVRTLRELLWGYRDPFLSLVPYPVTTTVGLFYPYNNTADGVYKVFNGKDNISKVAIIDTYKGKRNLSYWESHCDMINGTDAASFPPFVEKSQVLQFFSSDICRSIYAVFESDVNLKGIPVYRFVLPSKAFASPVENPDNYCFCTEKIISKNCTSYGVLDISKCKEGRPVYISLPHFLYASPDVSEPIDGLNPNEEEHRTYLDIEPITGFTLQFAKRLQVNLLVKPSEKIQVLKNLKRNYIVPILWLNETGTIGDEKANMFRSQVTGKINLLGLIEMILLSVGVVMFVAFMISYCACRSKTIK
Test: flow cytometry of hybridoma supernatants on CD36-expressing cells

Binding result, binds:
B1, B2, B3, B4

From patent publication JP2010235447A (dated 2010)
